Data from patent US20240043548A1, “PREPARATION AND USE OF ANTI-FSHR ANTIBODY AND ANTIBODY-DRUG CONJUGATE THEREOF” (CANWELL (GZ) BIOTECH LIMITED, priority 2020, published 2024).
Where a SMILES comes first, the peptide text is derived from it. [ ]: non-standard residue; d: D form. Dolaproine = CO[C@@H]([C@@H]1CCCN1)[C@@H](C)C(=O)O; Dil = CC[C@H](C)[C@H](NC)[C@@H](CC(=O)O)OC; NMeV = CN[C@H](C(=O)O)C(C)C

T1: human FSHR (Homo sapiens, UniProt P23945)
T1 construct: a fragment containing the FSHR gene was obtained by PCR with the cDNA as a template and FSHR-F and FSHR-R as primers; expressed in transfected cells; host or cells: HEK293T
T1 sequence (P23945 18-695): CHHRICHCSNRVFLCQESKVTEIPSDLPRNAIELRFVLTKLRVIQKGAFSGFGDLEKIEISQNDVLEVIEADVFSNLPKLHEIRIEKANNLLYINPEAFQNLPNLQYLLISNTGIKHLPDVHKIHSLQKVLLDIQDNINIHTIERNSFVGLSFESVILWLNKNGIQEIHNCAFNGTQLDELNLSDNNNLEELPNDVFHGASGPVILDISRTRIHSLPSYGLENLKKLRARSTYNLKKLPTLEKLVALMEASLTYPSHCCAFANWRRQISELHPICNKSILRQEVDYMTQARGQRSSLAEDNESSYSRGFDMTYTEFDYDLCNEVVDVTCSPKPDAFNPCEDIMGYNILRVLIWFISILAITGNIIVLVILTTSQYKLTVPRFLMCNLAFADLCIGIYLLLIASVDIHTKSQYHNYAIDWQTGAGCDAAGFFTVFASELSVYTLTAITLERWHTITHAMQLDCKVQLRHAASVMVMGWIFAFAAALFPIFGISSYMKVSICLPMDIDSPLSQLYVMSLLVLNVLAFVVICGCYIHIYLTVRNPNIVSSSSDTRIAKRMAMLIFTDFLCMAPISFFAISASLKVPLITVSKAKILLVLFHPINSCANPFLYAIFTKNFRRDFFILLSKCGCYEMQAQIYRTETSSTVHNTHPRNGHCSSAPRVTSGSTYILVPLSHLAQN


Assays:
OVCAR-3 = assay: Cell killing assay, OVCAR-3; format: cell-based; conditions: OVCAR-3 human ovarian cancer cell line
Description: (§1) In this example, the anti-cancer effect of CAN001 antibody-drug conjugate was tested with CellTiter-Glo cell viability assay in a 96-well plate.
(§2) Human ovarian cancer cell lines: OVCAR-3, A2780, and 3A0, all from ATCC.
(§3) Cells were seeded in a 96-well cell culture plate with 1,000 cells per well, and the total amount of the culture medium per well was controlled to 200 μL. After the cells adhered to the wall, the cells were treated with corresponding drugs, and the drugs were withdrawn at different time points (0, 24 h, 48 h, 72 h and 96 h), and MTS detection solution (10 μL MTS reagent+190 μL complete medium) (MTS cell proliferation kit (colorimetry) from AmyJet Scientific) was added. Then, the 96-well cell culture plate was incubated in a CO2 cell incubator for about 2 h away from light. Then, the cell culture plate was taken out and was measured at a wavelength of 492 nm to determine the absorbances of different groups of cells.
(§4) % inhibition and IC50 of each compound were calculated with XLFit curve fitting software.

A2780 = assay: Cell killing assay, A2780; format: cell-based; conditions: A2780 human ovarian cancer cell line
Description: as §1, §2, §3, §4

3AO = assay: Cell killing assay, 3AO; format: cell-based; conditions: 3AO human ovarian cancer cell line
Description: as §1, §2, §3, §4

human FSHR = molecular target: T1, human FSHR; assay: Flow cytometry analysis of CAN001 antibody on HEK293T cells expressing FSHR; format: binding; conditions: for positive stained rate of the HEK293T cells: HEK293T cells expressing FSHR
Description: HEK293T cells were transfected with pMSGβ3_FSHR plasmid to obtain HEK293T cells expressing FSHR as the experimental group. HEK293T cells were transfected with pmaxGFP(Lonza) to obtain HEK293T cells expressing GFP protein as the negative control. After incubation with the supernatant containing the CAN001 antibody obtained in Example 3, the cells of the experimental group and negative control were stained with the CAN001 antibody and then the cells were washed and incubated with APC conjugated goat anti-mouse IgG secondary antibody. Flow cytometry was done with BD calibur and analyzed with Cellquest software.
In order to further screen the best CAN001 supernatant, HEK293T cells were co-transfected with a mixture of plasmids pcDNA3.1_CAN001 HC and pcDNA3.1_CAN001 LC with different proportions (mass ratios of pcDNA3.1_CAN001 HC to pcDNA3.1_CAN001 LC from left to right in FIG. 3 were 1:2, 1:1 and 1:3 respectively) and 25 kD linear PEI polymer according to a mass ratio of vector to polymer of 1:3. Seventy-two hours after transfection, the supernatant was collected and used to stain HEK293T cells expressing FSHR, and HEK293T cells expressing GFP protein were used as the negative control. The steps were as described above. […] The mass ratio of pcDNA3.1_CAN001 HC to pcDNA3.1_CAN001 LC of 1:2 was selected to prepare the supernatant containing CAN001 antibody.

Molecule	IC50 (OVCAR-3)	IC50 (A2780)	IC50 (3AO)	staining of FSHR-expressing versus GFP-expressing HEK293T cells (human FSHR; supernatant containing CAN001 antibody, APC goat anti-mouse IgG secondary, GFP-expressing cells as negative control)	positive stained rate of the HEK293T cells (human FSHR; supernatant from mass ratio pcDNA3.1_CAN001 HC to LC 1:1)	positive stained rate of the HEK293T cells (human FSHR; supernatant from mass ratio pcDNA3.1_CAN001 HC to LC 1:2)	positive stained rate of the HEK293T cells (human FSHR; supernatant from mass ratio pcDNA3.1_CAN001 HC to LC 1:3)
CC[C@H](C)[C@@H]([C@@H](CC(=O)N1CCC[C@H]1[C@H](OC)[C@@H](C)C(=O)N[C@@H](Cc1ccccc1)C(=O)O)OC)N(C)C(=O)[C@@H](NC(=O)[C@@H](NC)C(C)C)C(C)C [MMAF, monomethylauristatin F] (H-[NMeV]V[Dil][Dolaproine]F-OH)	205 nM	223 nM	301 nM				
CAN001: Mouse anti-human FSHR monoclonal antibody; light chain SEQ ID NO: 3, heavy chain SEQ ID NO: 4 (protein, Light chain amino acid sequence; Heavy chain amino acid sequence) light: MALPVTALLLPLALLLHAARPQIVLTQSPVIMSASPGEKVTLTCSASSSVSSSYLYWYQQKPGSSSKLWIYSTSNLASGVPARFSGSGSGTSYSLTISSMEAEDAASYFCHQWSSYPPTFGGGTKLEIKRADAAPTVSIFPPSSEQLTSGGASVVCFLNNFYPKDINVKWKIDGSERQNGVLNSWTDQDSKDSTYSMSSTLTLTKDEYERHNSYTCEATHKTSTSPIVKSFNRNEC heavy: MEFGLSWVFLVALFRGVQCASQVQLQQPGAELVKPGASVNLSCKASGYTFTSYWMHWVKQRPGQGREWIGEINPRNGRTNYNEKFKSKATLTVDKSSSTAYMQLSSLTSEDSAVYCCARLSVGFAYWGQGTLVTVSAAKTTAPSVYPLAPVCGDTTGSSVTLGCLVKGYFPEPVTLTWNSGSLSSGVHTFPAVLQSDLYTLSSSVTVTSSTWPSQSITCNVAHPASSTKVDKKLEPRGPTIKPCPPCKCPAPNAAGGPSVFIFPPKIKDVLMISLSPIVTCVVVDVSEDDPDVQISWFVNNVEVHTAQTQTHREDYNSTLRVVSALPIQHQDWMSGKEFKCKVNNKDLGAPIERTISKPKGSVRAPQVYVLPPPEEEMTKKQVTLTCMVTDFMPEDIYVEWTNNGKTELNYKNTEPVLDSDGSYFMYSKLRVEKKNWVERNSYSCSVVHEGLHNHHTTKSFSRTPGK	> 1000 nM			specifically stained FHSR-expressing cells but not GFP-expressing cells	30.02%	38.3%	34.75%
